Measurements published in patent US20200179236A1, “METHOD AND PRODUCT FOR CARIES TREATMENT” (Credentis AG, priority 2016, published 2020).
Where no end group is shown, it is not given here.

Assays:
[1] = pH at which the peptide starts to undergo self-assembly; format: physicochemical
Source text: Particular self-assembling peptides for use according to the invention are selected such that they are in self-assembled form when the pH of their environment is below a certain pH, e.g. below pH 7.5, e.g., at physiological ionic strength. The pH at which preferred self-assembling peptides of the invention undergo self-assembly is below 7.5, preferably below 7.2, more preferably below 7.0. For example, the pH at which the self-assembling peptide P11-4 (SEQ ID NO:1) and terminally modified P11-4 (SEQ ID NO:2) start to undergo self-assembly is about 7.5. This means that the self-assembling peptides start to self-assemble to a significant extent when the pH drops below 7.5.
As used herein, the pH at which the self-assembling peptide starts to undergo self-assembly refers to the pH below which a significant extent of self-assembly of the peptides in solution is observed, which means that at least about 25%, about 30%, about 35%, about 40%, about 45%, about 50%, about 55%, about 60%, about 65%, about 70%, about 75%, about 80%, about 85%, about 90%, about 95%, about 99% or even about 100% of the peptides found in the dental care product are assembled. In a preferred embodiment, at least about 25% of the peptides found in the dental care product are assembled below the pH at which the peptide starts to undergo self-assembly. […]

[2] = Self-assembling kinetic of P11-4 by measurements of elastic modulus G′; format: physicochemical; settings: 15 mg/ml, neutral pH, 37° C., 0.1% strain, 1 rad/second; independent of ionic strength
Description: P11-4 was prepared at 15 mg/ml with different buffer compositions (see below) measured at 0.1% strain, 37° C. and a frequency of 1 rad/second. Self-assembly of peptide monomers to polymers takes more than 5 min independent of the used ionic strength at neutral pH.
Squares (top line of symbols) —NaCl: Tris (0.055 M)+NaCl, final ionic strength 142 mM;
Artifical saliva (second line of symbols from top): Tris, Ca(NO3)2, KH2PO4 (ratio 0.77:0.14: 0.08), ionic strength 142 mM;
Dulbecco's Modified Eagle Medium (DMEM): NaCl, NaHCO3,KCl,CaCl2, MgSO4 (ratio 0.66:0.4:0.05: 0.02:0.007), ionic strength 165 mM; MgSO4: 0.055 M Tris+0.192 M MgSO4 0.14 M Ionic strength

Row | Substance | pH at which the peptide starts to undergo self-assembly [1] | time of self-assembly of peptide monomers to polymers [2]
1 | QQRFEWEFEQQ | about 7.5 | more than 5 min
2 | CH3CO-QQRFEWEFEQQ-NH2 (Ac-QQRFEWEFEQQ-NH2) [terminally modified P11-4] | about 7.5 | 
